Measurements published in patent publication US11046782B2, “Methods for treatment and diagnosis of cancer by targeting glycoprotein A repetitions predominant (GARP) and for providing effective immunotherapy alone or in combination” (MUSC FOUNDATION FOR RESEARCH DEVELOPMENT, priority 2016, dated 2021).
Blank lines part the entries; values can stand above or below the molecule they belong to.

Tests used:
B16-F1 melanomas = experiment: B16-F1 melanoma model, adoptive T cell therapy with anti-platelet agents; type: in vivo, C57BL/6 mice; conditions: no adoptive T cells; Cy on day 7
Description: To establish the clinical relevance of the suppressive effect of platelets on anti-tumor immunity, the impact of platelets on immunotherapy was addressed pharmacologically. B16-F1 melanomas were established in C57BL/6 mice after subcutaneous injection on day 0, followed by lymphodepletion with Cy on day 7, and infusion of ex vivo primed Pmel cells on day 8, along with anti-platelet (AP) agents: aspirin and clopidogrel. Aspirin and clopidogrel inhibit platelet activation by blocking cycloxyenase and ADP receptors, respectively.
B16-F1 tumor model and adoptive T cell therapy (ACT). […] (B16 EV, and B16 GARP-Fc; n=5-7 each group) of 6-8-week old female C57BL/6J mice were inoculated s.q. in the right flank using 2.5×10^5 cells and, when specified, treated with one intra-peritoneal injection of CY (4 mg/mouse) a day prior to adoptive T cell therapy. […] Primary tumor growth was monitored 3 times per week with vernier calipers. Peripheral adoptively transferred Pmel cells were monitored at 2, 3, 4, and 5 weeks after ACT. Ex-vivo Pmel IFN-γ production was assess stimulating Pmel cells for 3 h in presence of hgp100 and brefeldin A (BFA) at 37° C. and analyzed by flow cytometry.

NMuMG cells = NMuMG cells stimulated with soluble GARP-Fc (morphology, vimentin Western blot); type: cell-based, murine
Method: Protein extraction, immunoprecipitation, and Western blot analysis. Cells were harvested by trypsin-EDTA when necessary, washed in PBS, and lysed on ice in radio-immunoprecipitation assay (RIPA) lysis buffer in the presence of a protease inhibitor cocktail (Sigma-Aldrich). Nuclear-free protein lysate was quantified by Bradford assay (Bio-Rad), and an equal amount of lysate was analysed by SDS-PAGE and Western blot under reducing conditions using anti-mouse GARP (AF6229; R&D system), anti-mouse Vimentin (D21H3; Cell signaling), anti-mouse E-Cadherin (24E10; Cell Signaling) and anti-mouse p-Smad-2/3 (EP823Y; Abcam).
Cell proliferation and in vitro wound healing assay. NMuMG cells (4×10^5) were starved overnight in serum free DMEM (Corning cellgro). Starved cells were cultured at the indicated times with GARP-Fc in 2% FBS DMEM. […] Proliferation was determined with 3-[4,5 dimethylthiazol-2-yl]-2,5-diphenyltetrazolium bromide (MTT), which was added to the cells at the indicated times and incubated for an additional 3 h at 37° C. […] Absorbance at 570 nm was then measured using a plate reader. The cell migration was measured by the wound-healing assay: at 100% confluence, two parallel wounds were made using a 1 ml pipette tip. Migration was assessed after 24, 48 and 72 hours and quantification of wound closure was measured using the ImageJ software (NIH).

active TGF-β1 = experiment: Active TGF-β ELISA of purified recombinant GARP-Fc; type: binding; conditions: GARP-Fc purified from CHO conditioned medium
Method: Purification of GARP-Fc. For purification of GARP-Fc protein GARP-Fc, MigR1 vector was transfected into Chinese hamster ovary (CHO) cells using Lipofectamine 2000 (Invitrogen) according to the manufacturer's instructions. Stably transfected clones were selected by blasticidin (5 μg/ml) and protein expression was quantified by SDS-PAGE and Western blot under reducing conditions using anti-mouse GARP and anti-mouse Fc antibody. Recombinant GARP-Fc was purified from cell culture supernatants by protein A affinity chromatography (GE Health).
TGF-β1, GARP, and GARP-TGF-β1 analysis. Active TGF-β1, total TGF-β1, and soluble GARP were measured in human and mouse serum using TGF-β1 and GARP ELISA kits (BioLegend, San Diego, Calif.) according to the manufacturer's protocols. To measure GARP-TGF-β1 complex by ELISA, 96-well plates were coated with TGF-β1 capture antibody according to the manufacturer's instructions (BioLegend, San Diego, Calif.). Samples were incubated for 2 h at room temperature followed by the incubation with the anti-hGARP detection antibody developed in our lab for another 2 h.

[1] = system: human GARP-expressing 4T1 tumor cells; experiment: 4T1-huGARP orthotopic mammary tumor model, GARP antibody therapy; type: in vivo, BALB/c mice; conditions: for primary tumor growth: antibody 0.1 mg/mouse i.p. three times per week, with or without a single dose of CY, vs isotype control
Method: 4T1 Tumor model and GARP antibody therapy. Female BALB/c mice, 6-8-week old were inoculated in the fourth mammary fat pad subcutaneously (s.q.) with 5×10^5 cells (4T1 EV, 4T1 GARP, or 4T1 GARP-Fc). Tumor growth was monitored three times per week with a digital vernier caliper and tumor volume was calculated using the following formula: tumor volume (mm^3)=[(width)^2×length][…]. In GARP antibody therapy experiments, beginning at 3 days post-tumor inoculation, anti-GARP antibody or polyclonal isotype-controlled antibody (0.1 mg/mouse in 0.1 mL PBS; three times per week) were administered intraperitoneally (i.p.) into mice. […] At end-point, mice were sacrificed and the primary tumor, draining LNs, spleen, lungs and liver were isolated. Tumor infiltrated lymphocytes were isolated by Collagenase D (Sigma) digestion followed by Histopaque-1083 (Sigma) mediated density separation.

mouse GARP = target: T1, mouse GARP (Mus musculus, UniProt G3XA59); experiment: Cross-reactivity of anti-GARP mAb clones against mouse GARP; type: binding
T1 sequence (G3XA59 18-663): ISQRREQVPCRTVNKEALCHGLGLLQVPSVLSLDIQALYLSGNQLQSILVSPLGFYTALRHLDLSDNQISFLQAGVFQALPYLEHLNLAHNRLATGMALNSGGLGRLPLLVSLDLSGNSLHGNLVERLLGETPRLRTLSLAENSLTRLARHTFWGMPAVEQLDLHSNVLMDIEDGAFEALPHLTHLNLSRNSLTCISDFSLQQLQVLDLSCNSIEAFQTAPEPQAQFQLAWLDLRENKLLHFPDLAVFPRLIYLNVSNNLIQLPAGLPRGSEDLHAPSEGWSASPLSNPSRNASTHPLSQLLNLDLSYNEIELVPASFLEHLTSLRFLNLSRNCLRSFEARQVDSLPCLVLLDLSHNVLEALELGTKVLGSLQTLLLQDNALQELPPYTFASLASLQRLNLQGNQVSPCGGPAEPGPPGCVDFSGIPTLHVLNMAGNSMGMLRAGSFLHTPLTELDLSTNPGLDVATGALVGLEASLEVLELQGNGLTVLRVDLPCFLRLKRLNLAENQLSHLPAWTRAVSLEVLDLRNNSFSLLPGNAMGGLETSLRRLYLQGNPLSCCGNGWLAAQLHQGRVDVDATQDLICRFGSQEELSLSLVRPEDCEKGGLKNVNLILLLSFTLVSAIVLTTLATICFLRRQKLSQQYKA

[2] = target: T2, binding of exogenous human LTGFβ-1 (huLTGFβ-1) to surface GARP (Homo sapiens, UniProt Q14392); experiment: Blocking of exogenous huLTGF-β binding to surface GARP on Pre-B-hGARP cells; type: cell-based; conditions: staining for cell surface huLTGF-β
T2 construct: expressed in transfected cells; host or cells: murine Pre-B leukemia line 70Z/3 stably transduced with human GARP (MigR1 retroviral vector)
T2 sequence (Q14392 20-662): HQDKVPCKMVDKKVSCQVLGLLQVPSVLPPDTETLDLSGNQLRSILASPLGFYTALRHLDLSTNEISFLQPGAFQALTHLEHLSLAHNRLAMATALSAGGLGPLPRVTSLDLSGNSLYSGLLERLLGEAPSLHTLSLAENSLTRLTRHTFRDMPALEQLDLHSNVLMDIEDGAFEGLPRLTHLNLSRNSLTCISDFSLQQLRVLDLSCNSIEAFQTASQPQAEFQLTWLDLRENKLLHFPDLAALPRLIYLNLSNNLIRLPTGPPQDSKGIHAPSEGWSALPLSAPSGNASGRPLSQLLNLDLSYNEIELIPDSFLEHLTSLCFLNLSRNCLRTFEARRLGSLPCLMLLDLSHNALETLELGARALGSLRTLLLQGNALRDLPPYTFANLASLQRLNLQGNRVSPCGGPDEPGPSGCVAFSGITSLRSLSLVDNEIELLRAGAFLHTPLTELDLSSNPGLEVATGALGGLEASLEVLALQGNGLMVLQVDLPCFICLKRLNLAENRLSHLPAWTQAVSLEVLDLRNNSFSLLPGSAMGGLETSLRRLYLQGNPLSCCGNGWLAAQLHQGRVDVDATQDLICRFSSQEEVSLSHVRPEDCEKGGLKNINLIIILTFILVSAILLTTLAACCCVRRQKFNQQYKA
Method: FIGS. 7A-7E. GARP-specific antibodies block binding of exogenous LTGF-β to GARP and have therapeutic values against a preclinical model of breast cancer. (7A) Surface staining of Pre-B cells stably expressing human GARP (Pre-B-hGARP) by various GARP antibodies. Grey histogram represents staining with isotype control antibody. (7B) Pre-B-hGARP cells were incubated without or with human LTGF-β (huLTGF-β), in the presence of various GARP antibodies or Isotype control antibody, followed by staining for cell surface huLTGF-β. (7C) BALB/c mice were injected with 4T1-huGARP mammary tumors orthotopically, followed by indicated treatment regimen. Data shown are the comparisons of primary tumor weight isolated at 35 days (left panel, combined treatment group) or 30 days (right panel, antibody treatment alone) after inoculation. (7D) Impact of anti-GARP antibody treatment alone (left panel) or in combination with CY on the number of metastatic tumor nodules in the lungs. (7E) Percentage of splenic Tregs and MDSCs in the spleen of mice treated with isotype control antibody or anti-GARP antibody (4D3). Two sample t-tests were used to compare group differences in all panels. *P<0.05. ***P<0.001.

[3] = spleen, vs isotype control antibody

Molecule: O=P1(N(CCCl)CCCl)NCCCO1 (stereo not shown) [Cy, cyclophosphamide]
tumor control without T cell transfer (B16-F1 melanomas): failed to control tumors

B1: GARP-Fc: fusion protein consisting of the N-terminal extracellular domain of GARP linked to an Fc domain of IgG (protein)
chain: ISQRREQVPCRTVNKEALCHGLGLLQVPSVLSLDIQALYLSGNQLQSILVSPLGFYTALRHLDLSDNQISFLQAGVFQALPYLEHLNLAHNRLATGMALNSGGLGRLPLLVSLDLSGNSLHGNLVERLLGETPRLRTLSLAENSLTRLARHTFWGMPAVEQLDLHSNVLMDIEDGAFEALPHLTHLNLSRNSLTCISDFSLQQLQVLDLSCNSIEAFQTAPEPQAQFQLAWLDLRENKLLHFPDLAVFPRLIYLNVSNNLIQLPAGLPRGSEDLHAPSEGWSASPLSNPSRNASTHPLSQLLNLDLSYNEIELVPASFLEHLTSLRFLNLSRNCLRSFEARQVDSLPCLVLLDLSHNVLEALELGTKVLGSLQTLLLQDNALQELPPYTFASLASLQRLNLQGNQVSPCGGPAEPGPPGCVDFSGIPTLHVLNMAGNSMGMLRAGSFLHTPLTELDLSTNPGLDVATGALVGLEASLEVLELQGNGLTVLRVDLPCFLRLKRLNLAENQLSHLPAWTRAVSLEVLDLRNNSFSLLPGNAMGGLETSLRRLYLQGNPLSCCGNGWLAAQLHQGRVDVDATQDLICRFGSQEELSLSLVRPEDCEKGGLKNVN
modifications: left off: a dimerising Fc or GST
notes: fusion protein consisting of the N-terminal extracellular domain of GARP linked to an Fc domain of IgG
vimentin expression (NMuMG cells; Western blot, indicated times and increasing doses): time- and dose-dependent upregulation | cell morphology change (NMuMG cells; serum-free medium, within 24 hours): spindle-shaped morphology | association between GARP-Fc and active TGF-β1 (active TGF-β1): direct association

B2: 5C5: second anti-GARP mAb (IgG2a); VH SEQ ID NO: 12, VL SEQ ID NO: 16 (antibody, listed as Homo sapiens, V domains shown)
VH: EVKLVESGGGSVKPGGSLKLSCAASGFTFSNYVMSWVRQTPEKRLEWVATISSGGSYTYYPDSVKGRLTISRDNAKNTLYLQMSSLRSEDTAMYYCARGYDNGDYVMDYWGQGTSVTVSS
VL: DIVLTQSPASLAVSLGQRATISCRASESVDTYGNSFMHWYQQIPGQPPKVLIYRASNLESGIPARFSGSGSRTDFTLTINPVEAGDVATYYCQQTNEHPPTFGGGTKLEIK
primary tumor growth [1]: modestly inhibited

cross-reactivity against mouse GARP (mouse GARP): low level of cross-reactivity | block of binding of exogenous human LTGFβ-1 to surface GARP [2]: only clone able to block
B3: 4D3: anti-GARP monoclonal antibody (IgG1); VH SEQ ID NO: 4, VL SEQ ID NO: 8 (antibody, listed as Homo sapiens, V domains shown)
VH: LDVQLQESGPGLVKPSQSLSLTCTVTGYSITSDYAWNWIRQFPGNKLEWMGYISYSGSTSYTPSLKSRISITRDTSKNHFFLQSNSVTTEDTATYYCAKSGGDYYGSSSYWYFDVWGAGTTVTVSS
VL: DIQMTQSPSSLSVSAGEKVTMSCKSSQSLLNSRSQKNYLAWYQQKPGQPPKLLIYRASTRGSGVPDRFTGSGSGTDFTLTISSVQAEDLAVYYCQNDHSYPFTFGSGTKLEIK
primary tumor growth [1]: modestly inhibited | splenic Gr1+CD11b+ myeloid-derived suppressor cells (MDSCs) [1, 3]: significant reduction | splenic Tregs [1, 3]: significant reduction
